# Laboratory results taken from article PMC11017283 (Journal of Lipid Research, 2024).
# T1: mouse LPL (p.R324A) (mouse, UniProt P11152 28-474, p.R324A)
# T1 sequence (looked up): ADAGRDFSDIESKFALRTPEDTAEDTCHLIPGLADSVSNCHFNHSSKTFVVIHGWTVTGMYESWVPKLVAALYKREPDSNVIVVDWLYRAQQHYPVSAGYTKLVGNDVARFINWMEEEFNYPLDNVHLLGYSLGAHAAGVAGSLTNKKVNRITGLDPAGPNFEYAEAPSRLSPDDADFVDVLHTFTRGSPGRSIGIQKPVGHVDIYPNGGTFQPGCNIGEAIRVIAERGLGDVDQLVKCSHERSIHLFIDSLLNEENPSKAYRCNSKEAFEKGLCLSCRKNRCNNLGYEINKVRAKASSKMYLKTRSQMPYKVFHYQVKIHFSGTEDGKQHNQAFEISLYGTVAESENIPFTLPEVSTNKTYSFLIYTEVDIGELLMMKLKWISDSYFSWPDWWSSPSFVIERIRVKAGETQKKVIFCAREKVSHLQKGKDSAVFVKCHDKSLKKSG
# B1: recombinant human GPIHBP1, soluble (residues 1-131) (domain or fragment, UniProt Q8IV16 21-151, looked up)
# chain: QTQQEEEEEDEDHGPDDYDEEDEDEVEEEETNRLPGGRSRVLLRCYTCKSLPRDERCNLTQNCSHGQTCTTLIAHGNTESGLLTTHSTWCTDSCQPITKTVEGTQVTMTCCQSSLCNVPPWQSSRVQDPTG
# Biological target: T1, mouse LPL (p.R324A)
# Test: native gel or EMSA
binder,measurement,value
B1,binding result,binds
